# Data published in article PMC8241838 (2021).
# B1: trimeric fusion protein PA-sfGFP-tLM511 (complex)
# chain 1: ENVERWQGQYEGLRGQDLGQAVLDAGHSVSTLEKTLPQLLAKLSILENRGVHNASLALSASIGRVRELIAQARGAASKVKVPMKFNGRSGVQLRTPRDLADLAAYTALKFYLQGPEPEPGQGTEDRFVMYMGSRQATGDYMGVSLRDKKVHWVYQLGEAGPAVLSIDEDIGEQFAAVSLDRTLQFGHMSVTVERQMIQETKGDTVAPGAEGLLNLRPDDFVFYVGGYPSTFTPPPLLRFPGYRGCIEMDTLNEEVVSLYNFERTFQLDTAVDRPCARSKSTGDPWLTDGSYLDGTGFARISFDSQISTTKRFEQELRLVSYSGVLFFLKQQSQFLCLAVQEGSLVLLYDFGAGLKKAVPLQPPPPLTSASKAIQVFLLGGSRKRVLVRVERATVYSVEQDNDLELADAYYLGGVPPDQLPPSLRRLFPTGGSVRGCVKGIKALGKYVDLKRLNTTGVSAGCTADLLVGRAMTFHGHGFLRLALSNVAPLTGNVYSGFGFHSAQDSALLYYRASPDGLCQVSLQQGRVSLQLLRTEVKTQAGFADGAPHYVAFYSNATGVWLYVDDQLQQMKPHRGPPPELQPQPEGPPRLLLGGLPESGTIYNFSGCISNVFVQRLLGPQRVFDLQQNLGSVNVSTGCAPALQAQTPGLGPRGLQATARKASRRSRQPARHPA
# chain 2: not shown
# chain 3: DTVDLNKLNEIEGTLNKAKDEMKVSDLDRKVSDLENEAKKQEAAIMDYNRDIEEIMKDIRNLEDIRKTLPSGCFNTPSIEKP
# modifications: Mn2+; A cytoplasmic form assumed
# B2: trimeric fusion protein PA-sfGFP-tLM511 (complex)
# chain 1: B1 chain 1
# chain 2: not shown
# chain 3: B1 chain 3
# B3: trimeric fusion protein PA-sfGFP-tLM511 (complex)
# chain 1: B1 chain 1
# chain 2: not shown
# chain 3: B1 chain 3
# modifications: assayed with 0.5 mM Mn2+; X1 variant without the 39-residue X2 insert (P23229 displayed = X1X2A; mature 988 = 1050 gives offset 62 after X2); A/B cytoplasmic form not given, A taken; alpha6 may be furin-cleaved; signal peptides removed
# Assays:
# Assay in all cases: FACS
# [1] = molecular target: α6β1 integrin on Expi293F cells, α6 R157A (human, UniProt P05556 21-798)
# Sequence of α6β1 integrin on Expi293F cells, α6 R157A (chain, as listed by the source R157A, chain 1 of 2): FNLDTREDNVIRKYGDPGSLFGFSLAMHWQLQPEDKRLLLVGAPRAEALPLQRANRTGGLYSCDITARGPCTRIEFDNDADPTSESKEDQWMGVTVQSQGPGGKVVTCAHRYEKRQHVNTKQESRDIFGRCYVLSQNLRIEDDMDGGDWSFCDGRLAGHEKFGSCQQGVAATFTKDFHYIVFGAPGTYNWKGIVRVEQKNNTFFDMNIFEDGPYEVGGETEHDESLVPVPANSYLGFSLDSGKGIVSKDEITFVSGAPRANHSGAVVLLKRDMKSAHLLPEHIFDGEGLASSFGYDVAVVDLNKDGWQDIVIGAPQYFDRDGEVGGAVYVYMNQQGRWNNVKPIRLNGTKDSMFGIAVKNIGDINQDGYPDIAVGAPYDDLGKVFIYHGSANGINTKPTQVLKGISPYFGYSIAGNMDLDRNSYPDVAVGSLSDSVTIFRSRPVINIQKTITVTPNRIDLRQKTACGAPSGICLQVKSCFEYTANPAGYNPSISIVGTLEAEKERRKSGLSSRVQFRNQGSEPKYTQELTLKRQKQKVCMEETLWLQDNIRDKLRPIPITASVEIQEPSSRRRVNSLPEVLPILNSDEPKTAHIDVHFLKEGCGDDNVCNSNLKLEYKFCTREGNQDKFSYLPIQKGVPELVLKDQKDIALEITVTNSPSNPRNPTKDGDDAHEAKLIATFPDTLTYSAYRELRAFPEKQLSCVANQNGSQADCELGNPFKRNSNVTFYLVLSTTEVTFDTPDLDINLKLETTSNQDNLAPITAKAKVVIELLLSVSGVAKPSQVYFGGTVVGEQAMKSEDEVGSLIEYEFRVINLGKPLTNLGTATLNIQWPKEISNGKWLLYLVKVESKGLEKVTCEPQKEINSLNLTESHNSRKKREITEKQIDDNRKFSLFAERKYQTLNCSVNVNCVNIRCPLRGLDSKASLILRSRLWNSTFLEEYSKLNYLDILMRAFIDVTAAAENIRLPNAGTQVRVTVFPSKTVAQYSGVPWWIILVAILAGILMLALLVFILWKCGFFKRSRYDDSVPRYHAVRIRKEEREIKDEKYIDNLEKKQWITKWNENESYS
# Sequence of α6β1 integrin on Expi293F cells, α6 R157A (P05556 21-798, chain 2 of 2): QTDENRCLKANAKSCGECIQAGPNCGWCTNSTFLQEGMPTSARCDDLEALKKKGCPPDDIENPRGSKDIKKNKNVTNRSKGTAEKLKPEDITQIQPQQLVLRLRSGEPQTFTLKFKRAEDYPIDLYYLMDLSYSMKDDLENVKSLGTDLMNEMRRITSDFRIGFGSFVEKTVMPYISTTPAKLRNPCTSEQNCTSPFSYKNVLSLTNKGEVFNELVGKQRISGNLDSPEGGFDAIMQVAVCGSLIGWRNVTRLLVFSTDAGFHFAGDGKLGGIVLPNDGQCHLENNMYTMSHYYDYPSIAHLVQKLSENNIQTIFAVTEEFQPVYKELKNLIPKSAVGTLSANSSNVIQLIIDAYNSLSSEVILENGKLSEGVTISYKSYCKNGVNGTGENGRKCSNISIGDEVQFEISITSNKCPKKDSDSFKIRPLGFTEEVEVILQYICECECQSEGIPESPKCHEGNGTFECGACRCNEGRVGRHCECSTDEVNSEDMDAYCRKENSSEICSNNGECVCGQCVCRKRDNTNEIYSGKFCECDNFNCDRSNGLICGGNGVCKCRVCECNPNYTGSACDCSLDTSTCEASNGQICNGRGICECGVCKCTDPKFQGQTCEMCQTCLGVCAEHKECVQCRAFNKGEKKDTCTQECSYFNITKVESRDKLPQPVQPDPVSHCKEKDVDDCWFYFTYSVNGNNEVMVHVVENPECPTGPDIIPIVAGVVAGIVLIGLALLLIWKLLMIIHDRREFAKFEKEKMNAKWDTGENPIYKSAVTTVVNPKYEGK
# [2] = molecular target: α6β1 integrin on Expi293F cells, α6 E221A (human, UniProt P05556 21-798)
# Sequence of α6β1 integrin on Expi293F cells, α6 E221A (chain, as listed by the source E221A, chain 1 of 2): as the sequence (chain, as listed by the source R157A, chain 1 of 2) above, with A157R, E221A counted along it
# Sequence of α6β1 integrin on Expi293F cells, α6 E221A (P05556 21-798, chain 2 of 2): as the sequence (P05556 21-798, chain 2 of 2) above
# [3] = molecular target: α6β1 integrin on Expi293F cells, α6 D205A (human, UniProt P05556 21-798)
# Sequence of α6β1 integrin on Expi293F cells, α6 D205A (chain, as listed by the source D205A, chain 1 of 2): as the sequence (chain, as listed by the source R157A, chain 1 of 2) above, with A157R, D205A counted along it
# Sequence of α6β1 integrin on Expi293F cells, α6 D205A (P05556 21-798, chain 2 of 2): as the sequence (P05556 21-798, chain 2 of 2) above
# [4] = molecular target: α6β1 integrin on Expi293F cells, α6 D153A (human, UniProt P05556 21-798)
# Sequence of α6β1 integrin on Expi293F cells, α6 D153A (chain, as listed by the source D153A, chain 1 of 2): as the sequence (chain, as listed by the source R157A, chain 1 of 2) above, with D153A, A157R counted along it
# Sequence of α6β1 integrin on Expi293F cells, α6 D153A (P05556 21-798, chain 2 of 2): as the sequence (P05556 21-798, chain 2 of 2) above
# [5] = molecular target: α6β1 integrin on Expi293F cells, α6 E219A (human, UniProt P05556 21-798)
# Sequence of α6β1 integrin on Expi293F cells, α6 E219A (chain, as listed by the source E219A, chain 1 of 2): as the sequence (chain, as listed by the source R157A, chain 1 of 2) above, with A157R, E219A counted along it
# Sequence of α6β1 integrin on Expi293F cells, α6 E219A (P05556 21-798, chain 2 of 2): as the sequence (P05556 21-798, chain 2 of 2) above
# [6] = molecular target: α6β1 integrin on Expi293F cells, α6 X1-ΔC (human, UniProt P05556 21-798)
# Sequence of α6β1 integrin on Expi293F cells, α6 X1-ΔC (P05556 whole entry, looked up, stated change not applied): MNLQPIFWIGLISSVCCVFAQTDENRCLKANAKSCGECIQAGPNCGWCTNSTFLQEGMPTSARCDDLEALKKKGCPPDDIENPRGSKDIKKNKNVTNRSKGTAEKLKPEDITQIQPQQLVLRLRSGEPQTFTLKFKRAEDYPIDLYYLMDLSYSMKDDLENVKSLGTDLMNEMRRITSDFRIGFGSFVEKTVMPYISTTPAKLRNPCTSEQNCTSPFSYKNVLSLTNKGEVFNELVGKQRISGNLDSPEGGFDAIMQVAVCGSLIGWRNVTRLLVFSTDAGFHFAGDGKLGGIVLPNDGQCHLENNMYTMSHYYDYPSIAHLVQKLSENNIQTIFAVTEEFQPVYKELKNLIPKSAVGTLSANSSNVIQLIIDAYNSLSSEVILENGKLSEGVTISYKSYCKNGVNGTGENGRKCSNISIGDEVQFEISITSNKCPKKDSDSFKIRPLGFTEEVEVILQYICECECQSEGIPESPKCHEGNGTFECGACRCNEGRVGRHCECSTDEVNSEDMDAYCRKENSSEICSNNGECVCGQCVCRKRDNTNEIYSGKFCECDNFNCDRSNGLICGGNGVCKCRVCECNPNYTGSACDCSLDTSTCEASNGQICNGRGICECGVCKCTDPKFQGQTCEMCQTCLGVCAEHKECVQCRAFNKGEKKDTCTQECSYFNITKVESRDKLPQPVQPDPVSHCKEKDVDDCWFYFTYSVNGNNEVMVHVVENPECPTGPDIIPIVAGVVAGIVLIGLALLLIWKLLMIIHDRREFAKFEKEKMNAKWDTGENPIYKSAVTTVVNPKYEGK
# [7] = molecular target: human α6β1 integrin transiently expressed on Expi293F cells, wild type (human, UniProt P05556 21-798)
# Sequence of human α6β1 integrin transiently expressed on Expi293F cells, wild type (chain, as listed by the source, chain 1 of 2): as the sequence (chain, as listed by the source R157A, chain 1 of 2) above, with A157R counted along it
# Sequence of human α6β1 integrin transiently expressed on Expi293F cells, wild type (P05556 21-798, chain 2 of 2): as the sequence (P05556 21-798, chain 2 of 2) above
binder,measurement,setting,value
B1,Kd,[1],28.8 nM
same,Kd,[2],32.5 nM
same,Kd,[3],60.1 nM
same,Kd,[4],45.2 nM
same,Kd,[5],134 nM
B2,Kd,[6],127 nM
B3,Kd,[7],12.5 nM
